Results: PMC4499152 (Nucleic Acids Research, 2015)

Columns and labels:
Experiment in all cases: pull-down
[1] = biological target: GST fusion with the C-terminal DNA-PKcs fragment H (a.a. 3747-4128) (human, UniProt P78527 3747-4128)
[2] = biological target: GST fusion with DNA-PKcs fragment H2 (a.a. 3747-4097) (human, UniProt P78527 3747-4097)
[3] = biological target: hnRNP-A1 N-terminal RRMs fragment (a.a. 1-188) (UniProt P09651-2 1-188)

GST fusion with DNA-PKcs fragment H2 (a.a. 3747-4097), sequence (P78527 3747-4097): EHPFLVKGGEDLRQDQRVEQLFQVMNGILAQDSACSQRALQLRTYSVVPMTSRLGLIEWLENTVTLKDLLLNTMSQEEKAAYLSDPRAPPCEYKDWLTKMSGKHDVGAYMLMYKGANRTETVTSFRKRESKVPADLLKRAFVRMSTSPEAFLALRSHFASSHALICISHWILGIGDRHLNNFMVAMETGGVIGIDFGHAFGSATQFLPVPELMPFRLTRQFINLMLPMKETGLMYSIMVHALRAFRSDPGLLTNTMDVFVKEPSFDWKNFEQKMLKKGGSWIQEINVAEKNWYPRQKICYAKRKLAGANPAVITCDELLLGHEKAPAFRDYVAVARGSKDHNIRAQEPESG

B1: His-tagged full-length hnRNP-A1 (recombinant, wild type) (natural protein, UniProt P09651-2 1-320, looked up)
chain: MSKSESPKEPEQLRKLFIGGLSFETTDESLRSHFEQWGTLTDCVVMRDPNTKRSRGFGFVTYATVEEVDAAMNARPHKVDGRVVEPKRAVSREDSQRPGAHLTVKKIFVGGIKEDTEEHHLRDYFEQYGKIEVIEIMTDRGSGKKRGFAFVTFDDHDSVDKIVIQKYHTVNGHNCEVRKALSKQEMASASSSQRGRSGSGNFGGGRGGGFGGNDNFGRGGNFSGRGGFGGSRGGGGYGGSGDGYNGFGNDGSNFGGGGSYNDFGNYNNQSSNFGPMKGGNFGGRSSGPYGGGGQYFAKPRNQGGYGGSSSSSSYGSGRRF
binding result [1]: binds | binding result [2]: binds

B2: GST fusion with DNA-PKcs fragment H3 (a.a. 4036-4128) (domain or fragment, human, UniProt P78527 4036-4128, looked up)
chain: KNWYPRQKICYAKRKLAGANPAVITCDELLLGHEKAPAFRDYVAVARGSKDHNIRAQEPESGLSEETQVKCLMDQATDPNILGRTWEGWEPWM
binding result [3]: binds
